Assay results as given in the nanobody polyreactivity screen of Harvey et al. (2022).

Experiment: yeast display, Sf9 membrane polyspecificity reagent, FACS + sequencing; frameworks hold sequencing errors
How it was run: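 In a synthetic yeast display library (Saccharomyces cerevisiae BJ5465), nanobody expression was induced with galactose for 36–48 hours. FACS gates were set low and high (top ~1%) using anti-HA fluorescence for expression and streptavidin fluorescence for binding of the Sf9 membrane reagent. Each polyreactivity label is drawn from the gate of origin.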

| Sequence | polyreactivity (PSR sort gate) |
| --- | --- |
| QVQLVESGGGLVQAGGSLRLICAASGLTFSGYVMAWYRQAPGKERELVAAISLSGGSTYYADSVKGRFTISRDNAKNTVYLQMNSLKPEDTAVYYCAASTRFYNSYRREYWGQGTQVTVSS | high polyreactivity |
| QVQLVESGGGLVQAGGSLRLICAASGLTFWVYTMGWYRQAPGKERELVARITSRGASTYYADSVKGRFTISRDNAKNTVYLQMNSLKPEDTAVYYCATDRYRIYPDYDYWGQGTQVTVSS | high polyreactivity |
| QVQLVESGGGLVQAGGSLRLICAASGLTFYVYAMGWYRQAPGKERELVAAISQRGGSTYYADSVKGRFKISRDNAKNTVYLQMNSLNPEDTAVYYCAKYTVQYAISHYDYWGQGTQVTVSS | high polyreactivity |
| QVQLVESGGGLVQAGGSLRLICAASGNTFKDYTMVWYIQAPRKERDLVASINSGGSTNYADSVKGRFTISRDNAKNTVYLQMNSLKPEDTAVYYCAKRAWSDYNPIDYWGQGTQVSVSS | low polyreactivity |
| QVQLVESGGGLVQAGGSLRLICAASGNTFNVYAMVWYRHAPGKERELVAAITLSGGSTYYADSVKGRFTISRDNAKNTVYLQMNSLKPEDTAVYYCNAEDDGTDYDYWGQGTQVTVSS | low polyreactivity |
| QVQLVESGGGLVQAGGSLRLICAASGNTFTGYVMGWNRQAPGKEREYVAAIRSGGSTYYADSVKGRFTISRDNAKNTVYLQMNSLKPEDTSVYYCAKCVTPYRTSAYGYWGQGTQVTVSS | high polyreactivity |
| QVQLVESGGGLVQAGGSLRLICAASGRIFATYTMGWYRQAPGKERELVAAISRNGGSTYYADSVKGRFTISRDYAKNTVYLQMNSLKTEDTAVYYCNAERRDDRGFDYWGQGTQVTVSS | low polyreactivity |
| QVQLVESGGGLVQAGGSLRLICAASGRIFDKNAMGWYRQAPGKERELVAAINRSGGRTYYADSVKGRFTISRDNAKNTVYLQMNSLKPEDTAVYYCAADTQGSRYDYWGQGTQVTVSS | high polyreactivity |
| QVQLVESGGGLVQAGGSLRLICAASGRIFDPYAMGWYRQAPGKERELVASISWSGGRTYYADSVKGRFTISRDNAKNTVYLQMNSLKPEDTAVYYCAARQWYRYKVRFDYWGQGTQVTVSS | high polyreactivity |
| QVQLVESGGGLVQAGGSLRLICAASGRIFEKYAMGWYRQEPGKERELVAAISSSGGSTYYADSVKGRFTISRDIAKNTVYLQMNSLKPDDTAVYYCAKLVVVPFYYWGQGTQVSVSS | high polyreactivity |
| QVQLVESGGGLVQAGGSLRLICAASGRIFFIYAMGWYRQAPGKERELVAGINRTGGSTYYADSVKGRFTISRDNAKNSVYLHMNSLKPEDTAVYYCAAVSYYASDYRYDYWGKGTQVTVSS | low polyreactivity |
| QVQLVESGGGLVQAGGSLRLICAASGRIFGIYAMGWYRQAPGKERELVARITGGGSTNYADSVKGRFTISRDNPKNTVYLQMNSLNPEDTAVYYCAANVRRIVGNITRYDYWGQGTQVTVSS | low polyreactivity |
| QVQLVESGGGLVQAGGSLRLICAASGRIFGRNAMGWYRQARGKERELVAGISSGGTTDYADSVKGRFTISRDNAKNTVYLQMNSLKPEDTAVYYCNVDNDDSAFYAIFVLYDYWGEGTQVTVSS | low polyreactivity |
| QVQLVESGGGLVQAGGSLRLICAASGRIFHVNAMGWYRQAPGKERELVAAISTSGGRTYYADSVKGRFTISRDNAKNTVYLQMNSLKPEDTAVYYCAAVSRAPGLRYDYWGQGTQVTVSS | high polyreactivity |
| QVQLVESGGGLVQAGGSLRLICAASGRIFLYYAMGWYRQAPGKERELVADINSGGNTTYADSVKGRFTISRDNAKNTVYLQMNSLKPEDTAVYYCAADPVFDLWEFVLDYGYDYWGQGTQVTVSS | low polyreactivity |
| QVQLVESGGGLVQAGGSLRLICAASGRIFNVYAMGWYRQAPGKETELVASITSAGSTYYADSVKGRFTISRDNAKNTVYLQMNSLKPEDTAVYYCNAESYSTWSFGHRYEYDYWGQGTQVTVSS | low polyreactivity |
| QVQLVESGGGLVQAGGSLRLICAASGRIFPDYDMGWYRQAPGKERELVAAITQRGGSTYADSVKGRFTISRDNAKNTVYLQMNSLKPEDTAVYYCNARWQRPYDYWGQGTQVTVSS | low polyreactivity |
| QVQLVESGGGLVQAGGSLRLICAASGRIFRGNAMGWYRQAPGKERELVAAISSGGSTNYADSVKGRFTISRDNEKNTVYLQMNSLKPEDTAVYYCAASRVRSYFGRYYWGQGTQVTVSS | high polyreactivity |
| QVQLVESGGGLVQAGGSLRLICAASGRIFRIYAIGWYRQAPGKERELVARITYSGGSTYYADSVKGRFTISRDNAKNSVYLLMNSLKPEETAVYYCAADWLGYQYGYWGQGTQVTVSS | low polyreactivity |
| QVQLVESGGGLVQAGGSLRLICAASGRIFRPYAMGWYRQAPGKEREFVATIRFTTGRTYYADSVKGRFTISRDNAKNTVYLQMNSLKPEDTAVYYCAADFAFVNYAKISYTTHDYWGQGTQVTVSS | high polyreactivity |
| QVQLVESGGGLVQAGGSLRLICAASGRIFSTYAMGWYRQAPGKERELVAAINKIGGSTYYADSVKGRFTISRDNAKNTVYLQMNSLKPEDTAVYYCAADAPYYPVRRYYYWGQGTQVTVSS | low polyreactivity |
| QVQLVESGGGLVQAGGSLRLICAASGRIFVINAMGWYRQAPGKERELVAAITGGGSTNYADSVKGRFTISRDNAKNPVYLQMNSLKPEDTAVYYCAADYRPVRRFYYSRYDDWGQGTQVTVSS | low polyreactivity |

| Sequence | polyreactivity (PSR sort gate) |
| --- | --- |
| QVQLVESGGGLVQAGGSLRLICAASGRIFYYNAMGWYRQAPGKERELVAVITRSGGRTFYADSVKGRFTISRDNAKNTGYLQMNSLKPEDTAVYYCAARYRYYPVTTRGYYWGQGTQVTVSS | high polyreactivity |
| QVQLVESGGGLVQAGGSLRLICAASGRIIGKNAMGWYRQARGKERELVAAIRYNGGRTYYADSVKGRFTISRDNAKNTVYLQMNSLKPEDTAVYYCAARWRSWRYKYDYWGQGTQVTVSS | high polyreactivity |
| QVQLVESGGGLVQAGGSLRLICAASGRILDIYALGWYRQAPGKERELVASISGSGSSTYYADSVKGRVTISRDNAKNTVYLQMNSLKPEDSAVYYCNAARSQGYEYATYGYWGQGSQVTVSS | low polyreactivity |
| QVQLVESGGGLVQAGGSLRLICAASGRILPLYAMGWYRQAPGKERELVADITGSDGSTYYADSVKGRFTISRDNAKNTVYLQMNSLKPEDTAVYYCATDAIGRTPSDPWDYYYWGQGTQVTVSS | low polyreactivity |
| QVQLVESGGGLVQAGGSLRLICAASGRIYIKNAMGWYRQAPGKERELVAAISSGSSTYYADSVKGRFTISRDNAKNSVYLQMYSLKPEDTAVYYCAAPDYRNGVRYPLDYWGQGTQVTVSS | low polyreactivity |
| QVQLVESGGGLVQAGGSLRLICAASGRIYWTYAMGWYRQAPGKERDLVAAISSGGSTNYADSVKGRFTISRDNAKNTVYLQMNSLKPEDTAVYYCAADRWYREYDYWGQGTQVTVSS | low polyreactivity |
| QVQLVESGGGLVQAGGSLRLICAASGRTFEDNAMGWYRQAPGKERELVAAISSDGSRNYADSVKGRFTISRDNAKNTVYLQMNSLKPEDTAVYYCNATVYWPYDWGTSDYWGQGTQVTVSS | low polyreactivity |
| QVQLVESGGGLVQAGGSLRLICAASGRTFENYAMGWYRQAPGKERELVAAISKSGGSTYYADSVKGRFTISRDNAKNPVYLQMNSLKPEDTAVYYCNARPGQSGARFGYWGQGTQVTVSS | high polyreactivity |
| QVQLVESGGGLVQAGGSLRLICAASGRTFGGYAMGWYRQAHGKERELVAAISDRGTSTYYADSVKGRFTISRDNAKYTVYLQMNSVKPEDTAVYYCAASSARRRMDYWGQGTQVTVSS | high polyreactivity |
| QVQLVESGGGLVQAGGSLRLICAASGRTFGTNTMGWYRQAPGKERELVATISSSSGSTYYADSVKGRFTISRDNAKNTVYLQMNSLKPEDSAVYYWAALYRWGYKRYDYWGQGTQVTVSS | high polyreactivity |
| QVQLVESGGGLVQAGGSLRLICAASGRTFKDYAMGWNRQAPGKERELVADISWSGGDTYYADSVKGRFTISRDNAKNTVYLQMNSLKPEDTAVYYCAADWSWCDGEDYHFEYDYWGQGTQVTVSS | low polyreactivity |
| QVQLVESGGGLVQAGGSLRLICAASGRTFLPNAMGWYRQAPGKERELVAVITSAGSTYYADSVKGRFTISRDNAKNTVYLQRNSLKPEDTAVYYCSADYLDYDLGDPPPRYYYWGQGTQVTVSS | low polyreactivity |
| QVQLVESGGGLVQAGGSLRLICAASGRTFNRYAMGWYRTAPRTERELVAVINSASSTNYADSVKGRFTISRDNAKNTVYLQMYSLKPEDTAVYYCNADGYRWYWYTGPMDYWGQGTKVTVSS | high polyreactivity |
| QVQLVESGGGLVQAGGSLRLICAASGRTFPGYAMGWYRPAPGKDRELVAAISNSGGRTYYADSVKGRFTISRDNAKKTVYLQMTSLKREDTAVYYCNATTDNGSNKRYYYWGQGTQVTVSS | high polyreactivity |
| QVQLVESGGGLVQAGGSLRLICAASGRTFRGYTMGWYRQAPGKERELVAAITWSGGSTYYADSVKGRFTISRDNAKNTVYLQMNSLKPEDTAVYYCAATKYLSFLYDYWGQGTLVTVSS | high polyreactivity |
| QVQLVESGGGLVQAGGSLRLICAASGRTFRRNAMGWYRQAPGKERELVAGIRSSGGSTYYADSVKGRFTISRDNAKNTVYLQMNSLKTEDTAVYYFAAAYRSASFPYDYWGQGTQVTVSS | high polyreactivity |
| QVQLVESGGGLVQAGGSLRLICAASGRTFTRYAMGWYRQAAGKERELVAAITSTGSTYYADSVKGRFTISRDNAKNTVYLQMNSLKPEDTAVYYCNKVGIRYYYGYDYWGQGTQVTVSS | high polyreactivity |
| QVQLVESGGGLVQAGGSLRLICAASGRTFWDYAMGWYRQAPGKERELVAAITASGTRTYYADSVKGRFTISRDNAKNTVFLQMNSLKPEDTAVYYCAAARIWWAHAYPTYVANDYWGQGTQVTVSS | high polyreactivity |
| QVQLVESGGGLVQAGGSLRLICAASGRTFYGYAMGWYRQAPGKERELVAAISTGGGRTYYADSVKGRFTISRDNAKNTVYLQMNSLKPEDTAVYYCAARRAYPHYRVDYWGPGTQVTVSS | high polyreactivity |
| QVQLVESGGGLVQAGGSLRLICAASGRTFYSKTMGWSRQAPGKEREFVAAIPSIVGSTYYADSVKGRFTISRDNAKITVYFKMNSLKPEDTAVYYCAVTDYYSYQLRYDSSGQGTQVTVSS | low polyreactivity |
| QVQLVESGGGLVQAGGSLRLICAASGRTFYSYAMGWYRQAPGKERELVASISSGGGTNYADSVKGRFTISRDNAKNTVYLQKNSLKPEDTAVYYCDVDPYPYRGYDYWGQGTQVTVSS | low polyreactivity |
